Measured values taken from US20220291238A1, “Methods for Predicting Treatment Response in Ulcerative Colitis” (Janssen Biotech, Inc., priority 2021, published 2022).

Key:
TRUC mice = assay: TRUC mouse chronic colitis model, in vivo treatments; conditions: TRUC Il22−/− mice
Experimental: In vivo treatments: Neutralizing anti-IL-22 mAb (clone IL22-01) and recombinant IL-22 (rIL-22) were developed and provided by Pfizer. […] of IL22-01 (per mouse) were administered i.p. every 3 to 4 days. […] of rIL-22 (per mouse) were administered i.p. at days 0, 4, 8 and 12, while mice were culled at day 14. Anti-CXCR2 (clone 242216, R&D Systems) was administered i.p. at a dose of […] per mouse at days 0, 3, 7, 10 and 14, while mice were culled at day 15.
Isolation of colonic LP leukocytes (cLPMCs): Mice were euthanized by either cervical dislocation or by a rising concentration of carbon dioxide gas, and then dissected in a laminar flow cabinet under aseptic conditions. Colons were opened longitudinally, cleaned thoroughly with ice-cold PBS and cut into 1-2 mm pieces and washed with 10 ml 5 mM EDTA, 1 mM Hepes in HBSS (Gibco; Gaithersburg, Md.) in a shaking water bath (300 rpm) at 37° C. for 20 min. Tissue was then vortexed vigorously for 10 seconds and passed through a […] cell strainer and collected in Ctubes (Miltenyi; Bergisch Gladbach, Germany) in complete RPMI (Gibco) containing 10% fetal calf serum, 0.25 mg/ml Collagenase D (Roche; Basel, Switzerland), 1.5 mg/ml Dispase II (Roche) and […] DNase (Roche) and put in a shaking water bath (300 rpm) at 37° C. for 40 minutes. Before and after the 40 minute incubation C-tubes were vigorously shaken for 30 seconds. Solutions were then passed through […] cell strainers and washed with ice-cold PBS. […] Cells were resuspended in 1 ml PBS, counted, and immediately used for further experiments.
Gene expression analysis: Whole tissue colonic fragments or sorted cells were lysed in 1 ml TRIsure (Bioline) and stored at −80° C. pending further processing. […] Concentration of RNA in each sample was measured using NanoDrop. […] Quantitative PCR was performed using QuantiTect primers (Qiagen) and Quantitect SybrGreen MasterMix (Qiagen) on a LightCycler 480 (Roche). Samples were analyzed in triplicates and relative expression of mRNAs was determined after normalization against the housekeeping gene Beta-2-Microglobulin (B2M). […]

mouse colonic organoids = assay: IL22 treatment of mouse colonic organoids, chemokine expression; assay type: cell-based
Experimental: Mouse colonoids were cultured in the same medium as above but without gastrin SB202190, Nicotinamide, A83-01 and with the addition of 3 μM CHIR99021 (Cambridge Biosciences; Cambridge, United Kingdom). To differentiate them, Wnt3a was withdrawn for 3 days. During the last 24 hours in differentiation medium, mouse colonoids were treated with mouse recombinant IL22 (10 ng/mL) and IL17A (50 ng/mL).
Next, whether IL22 mediated regulation of neutrophil-active chemokine expression was functionally important in colitis was investigated. First, it was evaluated whether IL22 mediated regulation of human colonic epithelial function was conserved across species. […] In the CC family of chemokines, induction of Ccl7 and weaker induction of Ccl2 by IL22, with little or no impact on other CC family members, was observed. These findings were validated using real time PCR, which confirmed time and dose dependent induction of CXC-family chemokine transcripts. As observed in human colonoids, IL22 induced expression of Cxcl1 and Cxcl5, and was synergistically augmented by IL17A. These observations were confirmed at the protein level by measuring chemokine production in supernatants of murine colonic organoids cultured with recombinant mouse cytokines.

human colonoids = assay: Cytokine treatment of human colonoids, RNA-seq; assay type: cell-based
Experimental: All patients provided informed consent (NRES/IRAS id:15/LO/1998). Subsequent establishment of human colonoids was performed as previously described by Sato et al (48). The crypts were cultured in growth medium containing advanced Dulbecco's modified Eagle's medium/F12, penicillin/streptomycin (100 units/mL), 10 mM HEPES, 2 mM Glutamax, supplements N2 (1×) and B27 (1×), 50 ng/mL mouse epidermal growth factor (all from Life Technologies; Carlsbad, Calif.), 1 mM N-acetylcysteine (Sigma-Aldrich; St. Louis, Mo.), 50% v/v Wnt3a conditioned medium, 10% v/v R-spondin-1 conditioned medium, 100 ng/mL murine recombinant noggin protein (Peprotech; Rocky Hill, N.J.), 10 nM gastrin (Sigma-Aldrich), 500 nM A83-01 (Bio-techne; Minneapolis, Minn.), 10 μM SB202190 (Sigma-Aldrich) and 10 mM Nicotinamide (Sigma-Aldrich). 10 μM Y-27632 (Sigma-Aldrich) was added to the culture medium for the initial 3 days. Medium was changed every 2 days. […] During the last 24 hours in differentiation medium, human colonoids were treated with human recombinant IL22 (10 ng/mL), IL17A (50 ng/mL), TNFα (10 ng/mL), IFNγ (20 ng/mL), IL13 (10 ng/mL) and IL22 (10 ng/mL)/IL17A (50 ng/mL) combination.
RNA extraction: Colonoids and LPMC were treated in a similar fashion. Cells were lysed and RNA was extracted using the RNAeasy kit (Qiagen; Hilden, Germany). This step was optimized balancing the effectiveness of elimination of DNA quantified (Qubit dsDNA HS assay kit) versus the loss of quantity of RNA (Qubit RNA BR assay kit). Optimal DNAse I concentration was determined to be ×5 the standard concentration. 500 ng of cDNA was then created using Revertaid cDNA synthesis kit (ThermoFisher) and diluted to a concentration of 6.25 ng/μl. Harvested colonoids were put in Qiazol and then RNA was extracted with the RNAeasy kit (Qiagen) as per manufacturer's guidelines. cDNA was created using the Revertaid cDNA synthesis kit (ThermoFisher).
Library preparation and sequencing: A total amount of 3 μg RNA per sample was used as input material for the RNA sample preparations. Sequencing libraries were generated using NEBNextR Ultra™ RNA Library Prep Kit for IlluminaR (NEB, Ipswich, Mass.) following manufacturer's recommendations and index codes were added to attribute sequences to each sample. Briefly, mRNA was purified from total RNA using poly-T oligo-attached magnetic beads. Fragmentation was carried out using divalent cations under elevated temperature in NEBNext First Strand Synthesis Reaction Buffer (5×). First strand cDNA was synthesized using random hexamer primer and M-MuLV Reverse Transcriptase (RNase H-). Second strand cDNA synthesis was subsequently performed using DNA Polymerase I and RNase H. Remaining overhangs were converted into blunt ends via exonuclease/polymerase activities. After adenylation of 3′ ends of DNA fragments, NEBNext Adaptor with hairpin loop structure were ligated to prepare for hybridization. In order to select cDNA fragments of preferentially 150˜200 bp in length, the library fragments were purified with AMPure XP system (Beckman Coulter, Brea, Calif.). Then 3 μl USER Enzyme (NEB) was used with size-selected, adaptor-ligated cDNA at 37° C. for 15 minutes followed by 5 minutes at 95° C. before PCR. Then PCR was performed with Phusion High-Fidelity DNA polymerase, Universal PCR primers and Index (X) Primer. At last, PCR products were purified (AMPure XP system) and library quality was assessed on the Agilent Bioanalyzer 2100 system. The clustering of the index-coded samples was performed on a cBot Cluster Generation System using HiSeq PE Cluster Kit cBot-HS (Illumina; San Diego, Calif.) according to the manufacturer's instructions. After cluster generation, the paired-end libraries were sequenced on an Illumina HiSeq platform. […]

| Molecule | Cxcl1 and Cxcl5 expression in the colon (TRUC mice) | disease activity (colitis) (TRUC mice) | neutrophil recruitment in the colon (TRUC mice) | regulation of chemokine expression (mouse colonic organoids) | downregulated transcripts (human colonoids; FDR<0.01) | upregulated transcripts (human colonoids; FDR<0.01) | differentially expressed transcripts (human colonoids; IL22 10 ng/mL, 24 hours, FDR<0.01) [transcripts] | regulation of chemokine expression (human colonoids; human colonoids, 24 hours) | transcripts uniquely regulated by IL22 (human colonoids; of the 1251 IL22-regulated transcripts) |
| --- | --- | --- | --- | --- | --- | --- | --- | --- | --- |
| rIL22: recombinant IL-22 developed and provided by Pfizer, given i.p. to mice | reinstated | restored colitis | restored excessive neutrophil recruitment | – | – | – | – | – | – |
| IL22: human recombinant IL22 (10 ng/mL) on human colonoids; mouse recombinant IL22 on mouse colonoids (protein, UniProt Q9GZX6 34-179, looked up) Interleukin-22: APISSHCRLDKSNFQQPYITNRTFMLAKEASLADNNTDVRLIGEKLFHGVSMSERCYLMKQVLNFTLEEVLFPQSDRFQPYMQEVVPFLARLSNRLSTCHIEGDDLHIQRNVQKLKDTVKKLGESGEIKAIGELDLLFMSLRNACI | – | – | – | selectively induced expression of the neutrophil-active chemokines Cxcl1, Cxcl3 and Cxcl5 | 672 | 579 | 1251 | preferentially upregulated the neutrophil-active CXC family chemokines CXCL1, CXCL2, CXCL3, CXCL4, CXCL5, CXCL6 and CXCL8 | 322 |
